From paper PMC12715529, “Functional D- and L‑Naphthalenediimide-Peptides: Microwave-Driven Synthesis, Supramolecular Aggregation, and Multiphoton Fluorescence Lifetime Imaging Microscopy in Living Cells” (ACS Bio & Med Chem Au, 2025)

Legend:
PC-3 cells = details: 48 h
Description: After splitting the cells, cells (3 × 10^3 cells per well) were seeded on a sterile 96-well plate and incubated for 48 h to let the cells adhere to the plates. The compound of interest was subsequently loaded at different concentrations into the wells and incubated for a further 48 h. The concentrations used ranged between 250 μM or 0.01 mg/mL and 1 nM or 1 ng/mL (1% DMSO with compound, 99% RPMI (10% FCS) for PC-3. Subsequently, the medium from the plates was carefully aspirated so as not to disturb the colonies, and the plates were gently washed with PBS. Next, a mixture of methanol/PBS (1:1) was added in a sufficient volume to cover the colonies, and it was left for 15 min. After this time, it was removed, and 100% methanol was added for a further 15 min. The methanol was then removed, and 0.5% crystal violet solution (in 20% methanol and 80% water) was added and left to allow sufficient staining. The crystal violet solution was removed by carefully rinsing the cell plates with an indirect flow of tap water. The plates were inverted and left on the bench at room temperature to dry the water. Methanol (200 μL) was added to each well, and the plate was incubated with its lid on for 20 min at room temperature on a bench rocker with a frequency of 20 oscillations per minute. The 96-well plates were then read with an ELISA plate reader, Molecular Devices Versa Max (BN02877). […]

[1] = Two-photon TCSPC point decays in solution (aggregation behaviour); type: physicochemical; details: for a1 (amplitude of τ1) / a2 (amplitude of τ2) / τ2 (long-lifetime component) / τ1 (short-lifetime component): two-photon TCSPC 910 nm
From the text: Prior to the cellular studies by FLIM, lifetime distribution decays of probes 3 (both enantiomers), 4 (both enantiomers), and L -6 were studied by TCSPC in different concentrations and solvent systems. […] The main fluorescence lifetime parameters obtained by TCSPC in the solution phase are summarized in Table , and further details are given in Figures S105–S133 and Tables S2–S4. The goodness of fit of the data points obtained is represented by the Chi–square parameter, χ^2; τ1 is the short-lifetime component; τ2 is the long-lifetime component; and the parameters a1 and a2 represent the amplitude of the components.

[2] = MTT and crystal violet cell viability assays; type: cell-based; details: human, PC-3 cells, MTT and crystal violet assays, up to 72 h observation, read-out: IC50 (cytotoxicity)
Description: (§1) Subsequently, cells were washed three times with PBS, and 3-(4,5-dimethylthiazol-2-yl)-2,5- diphenyltetrazolium bromide (MTT) was added (0.5 mg/mL in serum-free medium (SFM)), followed by a 2 h incubation. After aspiration to remove the serum-free medium, 100 μL of DMSO was added to solubilize the precipitated formazan species, and 96-well plates were read by an ELISA plate reader, Molecular Devices Versa Max (BN02877). The absorption wavelength was 570 nm, and a 690 nm wavelength was used as a reference.

[3] = system: cancerous cell lines (PC-3); assay: MTT and crystal violet cell viability assays; type: cell-based; details: at concentrations used for imaging, over 72 h of observations
Description: as §1

[4] = FE-SEM and Airyscan confocal imaging of dried films (aggregation morphology); type: physicochemical; details: dried powder or freeze-dried 1 mg/mL MeCN/H2O (1:1) or DMSO solutions
Description: To further investigate the aggregation behavior, we examined the surface morphologies of the isolated conjugates in the solid state at the micrometer scale using field emission scanning electron microscopy (FE-SEM). This analysis aimed to determine whether the aggregation properties of these peptide-based compounds influence their fluorescence emission. The FE SEM micrographs of the D- and L-enantiomers of 3 and 4 were recorded from dried powder after purification or after freeze-drying of 1 mg/mL solutions deposited in either MeCN/H2O (1:1) or DMSO solutions. […] Confocal laser scanning fluorescence microscopy was performed for the thin films deposited on glass-bottomed borosilicate slides using imaging Petri dishes. Micrographs were acquired using Airyscan detection for L -3 (a1–e1), L -4 (a2–e2), D -3 (a3–e3), D -4 (a4–d4), and L -6 (a5–d5) where these images were recorded following overnight freeze-drying of films deposited from DMSO (Figures and S67). […] This is consistent with our observations from solution excitation–emission maps (Figures and S57–S63) and further points to the overall ability of these aggregates to show fluorescence emission due to possible stacking and excited-state electron and energy dynamics. […] Specifically, emission was detected in the blue (λem = 420–480 nm), green (λem = 495–550 nm), and red (λem = 555–620 nm) channels. […]

[5] = molecular target: T1, GRP receptors in PC-3 cells (Homo sapiens, UniProt P30550); assay: Blocking experiment with L-[7–13]BBN, confocal imaging; type: cell-based; details: PC-3 pre-incubated with 1 mM L-[7–13]BBN, 37 °C, 20 min, washed, then conjugate 20 min
T1 construct: This also supports the targeted uptake directed by the GRP receptors in PC-3 cells; endogenous in cells; host or cells: PC-3 cells (ATCC)
T1 sequence (P30550 whole entry): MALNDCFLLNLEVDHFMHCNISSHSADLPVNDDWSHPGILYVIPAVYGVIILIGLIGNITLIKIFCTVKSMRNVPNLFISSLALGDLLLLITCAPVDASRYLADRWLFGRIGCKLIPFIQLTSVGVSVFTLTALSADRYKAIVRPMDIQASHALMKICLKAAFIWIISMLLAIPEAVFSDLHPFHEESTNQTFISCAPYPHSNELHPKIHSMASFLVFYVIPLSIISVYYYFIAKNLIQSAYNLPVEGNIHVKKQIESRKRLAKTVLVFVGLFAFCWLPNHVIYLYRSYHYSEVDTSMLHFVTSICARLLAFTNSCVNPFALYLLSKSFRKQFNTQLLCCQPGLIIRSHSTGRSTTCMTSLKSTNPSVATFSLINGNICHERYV
Description: Compound L -6 emits in the green and red channels (500–550 and 570–750 nm, respectively) when excited at 488 nm. […] In addition, the fluorescence emissions in vitro are stronger than the observed fluorescence emission in solution. […] This also supports the targeted uptake directed by the GRP receptors in PC-3 cells interplayed with BODIPY-driven cellular localization. To further probe this observation, a blocking experiment by confocal imaging was conducted (Figures S103–S104), whereby PC-3 cells were first incubated in the presence of a high concentration of L-[7–13]-BBN (1 mM) at 37 °C for 20 min. This peptide is only weakly fluorescent, and on this time scale (and up to 18 h of incubation time), confocal imaging cannot show distinguishable emission, to describe the uptake for L-[7,13]-BBN alone by this method (Figure S87). After the standard 20 min pretreatment time, the cells were washed with PBS and then the serum-free medium (SFM) was replaced. […] In the case of L-6, the observed maximum fluorescence intensity is distributed over the exterior of the cell, with points of aggregation visible around the membrane. […]
Figure S103. […] (D) A comparison of the mean fluorescence intensity estimated from confocal imaging experiments of the standard blocking assays in living PC-3 cells (Figure S103), under 20 min incubation, 37 °C, ex 488 nm. […]

[6] = DMSO, 0.01 mM, double-exponential fit, aggregation indicator

Compound	IC50 (PC-3 cells) [µM]	a1 (amplitude of τ1) ([1]; DMSO, 0.01 mM) [%]	a2 (amplitude of τ2) ([1]; DMSO, 0.01 mM) [%]	τ2 (long-lifetime component) ([1]; DMSO, 0.01 mM) [ns]	τ1 (short-lifetime component) [1, 6] [ns]	a1 (amplitude of τ1) ([1]; DMSO, 0.1 mM) [%]	a2 (amplitude of τ2) ([1]; DMSO, 0.1 mM) [%]	τ1 (short-lifetime component) ([1]; DMSO, 0.1 mM) [ns]	a1 (amplitude of τ1) ([1]; DMSO, 1 mM) [%]	a2 (amplitude of τ2) ([1]; DMSO, 1 mM) [%]	τ1 (short-lifetime component) ([1]; DMSO, 1 mM) [ns]	τ2 (long-lifetime component) ([1]; DMSO, 1 mM) [ns]	a1 (amplitude of τ1) ([1]; DMSO/H2O (1:1), 0.025 mM) [%]	a2 (amplitude of τ2) ([1]; DMSO/H2O (1:1), 0.025 mM) [%]	a1 (amplitude of τ1) ([1]; DMSO/H2O (1:1), 2.5 mM) [%]	a2 (amplitude of τ2) ([1]; DMSO/H2O (1:1), 2.5 mM) [%]	τ1 (short-lifetime component) ([1]; DMSO/H2O (1:1), 2.5 mM) [ns]	τ2 (long-lifetime component) ([1]; DMSO/H2O (1:1), 2.5 mM) [ns]	IC50 at 48 h [2] [µM]	cytotoxicity in words [3]	other results
CC(C)C[C@H](NC(=O)[C@H](Cc1c[nH]cn1)NC(=O)CNC(=O)[C@@H](NC(=O)[C@H](C)NC(=O)[C@H](Cc1c[nH]c2ccccc12)NC(=O)[C@H](CCC(N)=O)NC(=O)[C@H](Cc1ccc(I)cc1)N1C(=O)c2ccc3c4c(ccc(c24)C1=O)C(=O)N([C@@H](Cc1ccc(I)cc1)C(=O)ON1C(=O)CCC1=O)C3=O)C(C)C)C(N)=O [L-3]	> 100	62	38	7.35	0.84	62	38	0.57	63	37	0.38	2.54	82	18	77	23	0.31	3.45	> 100	nontoxic	τ1 (short-lifetime component) ([1]; DMSO/H2O (1:1), 0.025 mM): 0.37 ns; τ2 (long-lifetime component) ([1]; DMSO/H2O (1:1), 0.025 mM): 10.01 ns; a1 (amplitude of τ1) ([1]; DMSO/H2O (1:1), 0.25 mM): 81%; a2 (amplitude of τ2) ([1]; DMSO/H2O (1:1), 0.25 mM): 19%; τ1 (short-lifetime component) ([1]; DMSO/H2O (1:1), 0.25 mM): 0.38 ns; τ2 (long-lifetime component) ([1]; DMSO/H2O (1:1), 0.25 mM): 9.87 ns
CC(C)C[C@H](NC(=O)[C@H](Cc1c[nH]cn1)NC(=O)CNC(=O)[C@@H](NC(=O)[C@H](C)NC(=O)[C@H](Cc1c[nH]c2ccccc12)NC(=O)[C@H](CCC(N)=O)NC(=O)[C@H](Cc1ccc(I)cc1)N1C(=O)c2ccc3c4c(ccc(c24)C1=O)C(=O)N([C@@H](Cc1ccc(I)cc1)C(=O)N[C@@H](CCC(N)=O)C(=O)N[C@@H](Cc1c[nH]c2ccccc12)C(=O)N[C@@H](C)C(=O)N[C@H](C(=O)NCC(=O)N[C@@H](Cc1c[nH]cn1)C(=O)N[C@@H](CC(C)C)C(N)=O)C(C)C)C3=O)C(C)C)C(N)=O [L-4]	> 100	75	25	4.76	0.51	79	21	0.49	77	23	0.48	4.29	84	16	86	14	0.26	4.97	> 100	nontoxic	τ2 (long-lifetime component) ([1]; DMSO, 0.1 mM): 5.45 ns; τ1 (short-lifetime component) ([1]; DMSO/H2O (1:1), 0.025 mM): 0.48 ns; τ2 (long-lifetime component) ([1]; DMSO/H2O (1:1), 0.025 mM): 9.57 ns; a1 (amplitude of τ1) ([1]; DMSO/H2O (1:1), 0.25 mM): 83%; a2 (amplitude of τ2) ([1]; DMSO/H2O (1:1), 0.25 mM): 17%; τ1 (short-lifetime component) ([1]; DMSO/H2O (1:1), 0.25 mM): 0.40 ns; τ2 (long-lifetime component) ([1]; DMSO/H2O (1:1), 0.25 mM): 3.12 ns; aggregate morphology [4]: granular and globular morphology
CC1=CC(C)=[N+]2C1=C(c1ccc(C(=O)NCCN3C(=O)c4ccc5c6c(ccc(c46)C3=O)C(=O)N([C@@H](CCC(N)=O)C(=O)N[C@@H](Cc3c[nH]c4ccccc34)C(=O)N[C@@H](C)C(=O)N[C@H](C(=O)NCC(=O)N[C@@H](Cc3c[nH]cn3)C(=O)N[C@@H](CC(C)C)C(N)=O)C(C)C)C5=O)cc1)c1c(C)cc(C)n1[B-]2(F)F [L-6]	–	68	32	3.34	0.14	80	20	0.14	66	34	0.14	1.67	–	–	65	35	0.15	2.25	> 100	nontoxic	τ2 (long-lifetime component) ([1]; DMSO, 0.1 mM): 2.64 ns; τ1 relative to BODIPY-linker precursor 5 ([1]; TCSPC in solution, assigned to self-aggregation): 10 fold lower; τ1 (approximate) ([1]; both DMSO and DMSO/H2O solutions, TCSPC): ~0.1 ns; uptake after pre-blocking with L-[7–13]BBN [5]: significant decrease of the uptake efficiency in pretreated cells; uptake after pre-blocking with L-[7–13]BBN ([5]; listed as L -6): significantly lesser extent than in the nonblocked experiment
